Results taken from publication PMC8927117, “Structural Insight into the MCM double hexamer activation by Dbf4-Cdc7 kinase” (Nature Communications, 2022).
“And” between values parts separate entries of the source, which are not always exact repeats. Equal values may be shown once.

T1: Mcm2 (subunit of the MCM double hexamer) (budding yeast (endogenous in W303), UniProt P29469 1-868)
T1 construct: Mcm2, budding yeast, endogenous protein from its genomic locus; Stood in the assay as a subunit of the DH; source: endogenous, G1 chromatin of budding yeast (W303), purified as part of the DH
T1 sequence (looked up): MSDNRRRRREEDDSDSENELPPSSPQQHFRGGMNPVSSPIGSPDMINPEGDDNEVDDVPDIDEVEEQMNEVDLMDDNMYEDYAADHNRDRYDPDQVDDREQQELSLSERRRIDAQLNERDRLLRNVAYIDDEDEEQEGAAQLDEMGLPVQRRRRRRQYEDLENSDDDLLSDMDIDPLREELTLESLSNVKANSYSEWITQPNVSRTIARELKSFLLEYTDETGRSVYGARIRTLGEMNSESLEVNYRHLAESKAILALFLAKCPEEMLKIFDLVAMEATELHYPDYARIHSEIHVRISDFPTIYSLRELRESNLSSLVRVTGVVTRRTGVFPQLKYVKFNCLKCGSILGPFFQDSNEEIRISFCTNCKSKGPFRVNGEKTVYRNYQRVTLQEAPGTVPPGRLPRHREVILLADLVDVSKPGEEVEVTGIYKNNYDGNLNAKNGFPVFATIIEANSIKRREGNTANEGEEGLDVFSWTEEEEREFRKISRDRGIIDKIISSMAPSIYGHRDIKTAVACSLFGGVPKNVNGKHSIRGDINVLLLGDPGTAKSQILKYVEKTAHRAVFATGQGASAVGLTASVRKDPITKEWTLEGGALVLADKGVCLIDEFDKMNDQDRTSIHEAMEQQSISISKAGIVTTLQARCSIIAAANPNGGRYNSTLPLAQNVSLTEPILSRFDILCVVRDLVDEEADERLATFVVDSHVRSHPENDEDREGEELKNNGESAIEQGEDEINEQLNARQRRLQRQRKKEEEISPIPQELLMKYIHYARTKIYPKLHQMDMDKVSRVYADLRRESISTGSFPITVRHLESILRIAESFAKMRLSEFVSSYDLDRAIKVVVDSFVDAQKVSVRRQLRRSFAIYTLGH

T2: Mcm4 (subunit of the MCM double hexamer) (budding yeast (endogenous in W303), UniProt P30665 1-933)
T2 construct: Mcm4, budding yeast, endogenous protein from its genomic locus; Stood in the assay as a subunit of the DH; source: endogenous, G1 chromatin of budding yeast (W303), purified as part of the DH
T2 sequence (looked up): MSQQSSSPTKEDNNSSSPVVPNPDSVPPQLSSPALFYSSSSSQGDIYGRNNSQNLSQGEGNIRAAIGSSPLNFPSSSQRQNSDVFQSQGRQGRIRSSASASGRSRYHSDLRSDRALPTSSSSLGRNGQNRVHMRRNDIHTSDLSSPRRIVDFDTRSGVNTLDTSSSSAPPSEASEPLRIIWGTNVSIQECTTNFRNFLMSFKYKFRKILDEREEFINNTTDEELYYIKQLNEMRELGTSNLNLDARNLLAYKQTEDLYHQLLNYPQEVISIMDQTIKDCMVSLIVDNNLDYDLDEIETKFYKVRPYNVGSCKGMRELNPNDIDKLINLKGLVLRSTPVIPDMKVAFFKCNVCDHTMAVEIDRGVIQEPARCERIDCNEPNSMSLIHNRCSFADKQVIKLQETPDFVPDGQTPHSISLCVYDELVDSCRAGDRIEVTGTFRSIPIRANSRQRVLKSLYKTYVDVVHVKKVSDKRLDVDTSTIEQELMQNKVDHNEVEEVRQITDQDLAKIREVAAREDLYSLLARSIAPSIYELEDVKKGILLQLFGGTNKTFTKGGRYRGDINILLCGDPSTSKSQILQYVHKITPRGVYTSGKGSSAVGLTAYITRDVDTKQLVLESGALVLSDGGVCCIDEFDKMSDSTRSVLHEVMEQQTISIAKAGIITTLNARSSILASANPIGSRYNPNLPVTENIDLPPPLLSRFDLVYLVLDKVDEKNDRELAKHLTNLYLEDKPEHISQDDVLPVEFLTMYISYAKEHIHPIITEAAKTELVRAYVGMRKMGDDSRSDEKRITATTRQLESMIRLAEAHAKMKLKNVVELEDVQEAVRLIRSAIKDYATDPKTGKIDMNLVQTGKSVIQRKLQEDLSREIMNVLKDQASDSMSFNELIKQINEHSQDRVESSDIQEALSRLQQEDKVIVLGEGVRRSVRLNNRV

B1: Dbf4 (subunit of the full-length DDK) (natural protein, budding yeast, UniProt P32325 1-704, looked up)
chain: MVSPTKMIIRSPLKETDTNLKHNNGIAASTTAAGHLNVFSNDNNCNNNNTTESFPKKRSLERLELQQQQHLHEKKRARIERARSIEGAVQVSKGTGLKNVEPRVTPKELLEWQTNWKKIMKRDSRIYFDITDDVEMNTYNKSKMDKRRDLLKRGFLTLGAQITQFFDTTVTIVITRRSVENIYLLKDTDILSRAKKNYMKVWSYEKAARFLKNLDVDLDHLSKTKSASLAAPTLSNLLHNEKLYGPTDRDPRTKRDDIHYFKYPHVYLYDLWQTWAPIITLEWKPQELTNLDELPYPILKIGSFGRCPFIGDRNYDESSYKRVVKRYSRDKANKKYALQLRALFQYHADTLLNTSSVNDQTKNLIFIPHTCNDSTKSFKKWMQEKAKNFEKTELKKTDDSAVQDVRNEHADQTDEKNSILLNETETKEPPLKEEKENKQSIAEESNKYPQRKELAATPKLNHPVLATFARQETEEVPDDLCTLKTKSRQAFEIKASGAHQSNDVATSFGNGLGPTRASVMSKNMKSLSRLMVDRKLGVKQTNGNNKNYTATIATTAETSKENRHRLDFNALKKDEAPSKETGKDSAVHLETNRKPQNFPKVATKSVSADSKVHNDIKITTTESPTASKKSTSTNVTLHFNAQTAQTAQPVKKETVKNSGYCENCRVKYESLEQHIVSEKHLSFAENDLNFEAIDSLIENLRFQI
notes: Dbf4, budding yeast, 704 residues; Stood in the assay as part of the DDK heterodimer
B2: Dbf4-dependent kinase Cdc7 (DDK), full-length Cdc7-Dbf4 heterodimer (complex, budding yeast)
chain 1: B1 chain
chain 2: MTSKTKNIDDIPPEIKEEMIQLYHDLPGIENEYKLIDKIGEGTFSSVYKAKDITGKITKKFASHFWNYGSNYVALKKIYVTSSPQRIYNELNLLYIMTGSSRVAPLCDAKRVRDQVIAVLPYYPHEEFRTFYRDLPIKGIKKYIWELLRALKFVHSKGIIHRDIKPTNFLFNLELGRGVLVDFGLAEAQMDYKSMISSQNDYDNYANTNHDGGYSMRNHEQFCPCIMRNQYSPNSHNQTPPMVTIQNGKVVHLNNVNGVDLTKGYPKNETRRIKRANRAGTRGFRAPEVLMKCGAQSTKIDIWSVGVILLSLLGRRFPMFQSLDDADSLLELCTIFGWKELRKCAALHGLGFEASGLIWDKPNGYSNGLKEFVYDLLNKECTIGTFPEYSVAFETFGFLQQELHDRMSIEPQLPDPKTNMDAVDAYELKKYQEEIWSDHYWCFQVLEQCFEMDPQKRSSAEDLLKTPFFNELNENTYLLDGESTDEDDVVSSSEADLLDKDVLLISE
notes: Dbf4, budding yeast, 704 residues; Cdc7, budding yeast; Treated with lambda phosphatase during purification; also called Dbf4-Cdc7 kinase complex; WT DDK
B3: Cdc7 (subunit of the full-length DDK) (enzyme, budding yeast, UniProt P06243 1-507, looked up)
chain: B2 chain 2
notes: Cdc7, budding yeast; Stood in the assay as part of the DDK heterodimer; also called kinase core

Legend:
Assay in all cases: cryo-EM structure; DDK-DH mixture (ATP-γ-S) mildly crosslinked by Grafix: 20-40% glycerol gradient with 0-0.025% glutaraldehyde, 150 mM KOAc, pH 7.6, 4 °C; States I-IV and Groups I-VI by focused 3D classification
Details in all cases: both partners purified
[1] = target: T1, Mcm2 (subunit of the MCM double hexamer)
[2] = target: T3, Mcm6 (subunit of the MCM double hexamer) (budding yeast (endogenous in W303), UniProt P53091 1-1017)
T3 construct: Mcm6, budding yeast, endogenous protein from its genomic locus; Stood in the assay as a subunit of the DH; source: endogenous, G1 chromatin of budding yeast (W303), purified as part of the DH

[3] = target: T2, Mcm4 (subunit of the MCM double hexamer)
[4] = target: T4, MCM double hexamer (Mcm2-7 double hexamer), endogenous, wild type (budding yeast (endogenous in W303), UniProt P29469 1-868; P24279 1-971; P30665 1-933; P29496 1-775; P53091 1-1017; P38132 …)
T4 construct: Mcm2, budding yeast, endogenous protein from its genomic locus; Mcm3, budding yeast, endogenous protein from its genomic locus; Mcm4, budding yeast, endogenous protein from its genomic locus; Mcm5, budding yeast, endogenous protein from its genomic locus; Mcm6, budding yeast, endogenous protein from its genomic locus; Mcm7, budding yeast, endogenous protein from its genomic locus; Either …

[5] = target: B1

T4 sequence (P24279 whole entry, chain 2 of 4): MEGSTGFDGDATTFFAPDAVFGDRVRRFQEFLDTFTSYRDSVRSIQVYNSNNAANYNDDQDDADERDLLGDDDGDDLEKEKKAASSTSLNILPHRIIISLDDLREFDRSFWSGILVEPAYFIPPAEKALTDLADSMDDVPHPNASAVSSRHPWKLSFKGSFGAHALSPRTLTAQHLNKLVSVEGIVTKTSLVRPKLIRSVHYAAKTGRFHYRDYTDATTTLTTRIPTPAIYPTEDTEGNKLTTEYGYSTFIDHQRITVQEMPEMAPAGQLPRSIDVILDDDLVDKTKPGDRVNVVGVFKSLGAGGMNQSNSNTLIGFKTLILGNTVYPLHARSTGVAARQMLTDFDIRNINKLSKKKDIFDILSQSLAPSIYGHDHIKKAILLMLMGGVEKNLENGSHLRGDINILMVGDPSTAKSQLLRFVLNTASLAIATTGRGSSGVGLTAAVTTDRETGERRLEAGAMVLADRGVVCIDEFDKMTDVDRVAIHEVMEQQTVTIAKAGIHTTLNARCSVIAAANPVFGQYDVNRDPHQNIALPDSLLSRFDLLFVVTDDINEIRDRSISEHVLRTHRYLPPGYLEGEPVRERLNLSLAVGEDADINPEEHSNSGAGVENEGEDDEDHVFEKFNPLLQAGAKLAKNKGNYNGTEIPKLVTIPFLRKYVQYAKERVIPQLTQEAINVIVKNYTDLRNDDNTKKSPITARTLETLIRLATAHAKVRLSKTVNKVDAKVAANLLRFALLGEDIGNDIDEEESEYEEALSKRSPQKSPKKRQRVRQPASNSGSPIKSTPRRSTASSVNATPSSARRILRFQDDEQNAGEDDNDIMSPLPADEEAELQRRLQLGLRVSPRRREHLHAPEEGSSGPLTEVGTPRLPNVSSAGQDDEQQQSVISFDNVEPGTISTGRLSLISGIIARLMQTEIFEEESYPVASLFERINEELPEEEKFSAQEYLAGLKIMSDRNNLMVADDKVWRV
T4 sequence (P29496 whole entry, chain 4 of 4): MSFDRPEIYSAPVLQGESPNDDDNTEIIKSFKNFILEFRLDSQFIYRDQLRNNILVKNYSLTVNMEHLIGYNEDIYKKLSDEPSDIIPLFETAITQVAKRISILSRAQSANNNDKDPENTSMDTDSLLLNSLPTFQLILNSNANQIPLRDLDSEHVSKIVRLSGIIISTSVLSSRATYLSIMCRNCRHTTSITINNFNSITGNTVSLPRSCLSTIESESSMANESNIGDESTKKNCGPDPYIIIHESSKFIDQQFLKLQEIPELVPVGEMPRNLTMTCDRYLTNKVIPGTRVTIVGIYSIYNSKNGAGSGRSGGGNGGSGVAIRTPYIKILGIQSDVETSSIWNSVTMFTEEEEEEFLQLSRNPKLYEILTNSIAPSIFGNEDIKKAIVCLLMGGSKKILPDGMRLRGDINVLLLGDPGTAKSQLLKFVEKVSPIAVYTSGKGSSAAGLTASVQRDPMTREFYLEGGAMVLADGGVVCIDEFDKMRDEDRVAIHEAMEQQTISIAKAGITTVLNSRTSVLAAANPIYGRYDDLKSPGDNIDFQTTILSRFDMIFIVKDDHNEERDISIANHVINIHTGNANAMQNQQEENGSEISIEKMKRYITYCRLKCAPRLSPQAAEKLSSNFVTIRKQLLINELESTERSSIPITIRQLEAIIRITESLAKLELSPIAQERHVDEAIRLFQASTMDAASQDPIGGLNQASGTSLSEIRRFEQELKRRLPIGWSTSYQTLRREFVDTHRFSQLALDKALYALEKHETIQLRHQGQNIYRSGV
T4 sequence (P53091 whole entry, chain 5 of 4): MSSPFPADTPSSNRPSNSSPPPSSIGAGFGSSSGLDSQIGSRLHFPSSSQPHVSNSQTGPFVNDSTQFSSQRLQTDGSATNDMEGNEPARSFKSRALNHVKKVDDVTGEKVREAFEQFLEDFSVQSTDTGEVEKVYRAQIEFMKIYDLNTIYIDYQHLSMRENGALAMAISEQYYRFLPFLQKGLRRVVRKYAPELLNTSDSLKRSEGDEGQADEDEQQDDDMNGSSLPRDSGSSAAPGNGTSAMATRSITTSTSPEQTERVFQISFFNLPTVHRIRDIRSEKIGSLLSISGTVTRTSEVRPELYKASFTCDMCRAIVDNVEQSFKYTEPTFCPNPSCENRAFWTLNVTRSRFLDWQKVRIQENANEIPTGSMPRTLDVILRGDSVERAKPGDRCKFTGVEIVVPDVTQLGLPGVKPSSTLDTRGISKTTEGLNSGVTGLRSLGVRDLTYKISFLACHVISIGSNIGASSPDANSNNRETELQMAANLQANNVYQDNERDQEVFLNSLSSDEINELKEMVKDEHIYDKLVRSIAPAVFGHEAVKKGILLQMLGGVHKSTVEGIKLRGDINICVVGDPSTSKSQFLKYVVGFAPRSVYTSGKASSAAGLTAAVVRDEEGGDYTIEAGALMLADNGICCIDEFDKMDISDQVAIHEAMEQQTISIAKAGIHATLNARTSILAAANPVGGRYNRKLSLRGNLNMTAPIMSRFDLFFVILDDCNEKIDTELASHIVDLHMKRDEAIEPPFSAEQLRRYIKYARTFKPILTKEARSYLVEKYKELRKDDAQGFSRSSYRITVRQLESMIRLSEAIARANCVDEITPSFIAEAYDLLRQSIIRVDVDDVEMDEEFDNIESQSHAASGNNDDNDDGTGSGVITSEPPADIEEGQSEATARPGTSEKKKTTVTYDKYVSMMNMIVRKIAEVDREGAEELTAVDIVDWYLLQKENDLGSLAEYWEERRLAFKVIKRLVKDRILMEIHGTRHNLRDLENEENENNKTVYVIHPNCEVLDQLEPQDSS
T4 sequence (P38132 whole entry, chain 6 of 4): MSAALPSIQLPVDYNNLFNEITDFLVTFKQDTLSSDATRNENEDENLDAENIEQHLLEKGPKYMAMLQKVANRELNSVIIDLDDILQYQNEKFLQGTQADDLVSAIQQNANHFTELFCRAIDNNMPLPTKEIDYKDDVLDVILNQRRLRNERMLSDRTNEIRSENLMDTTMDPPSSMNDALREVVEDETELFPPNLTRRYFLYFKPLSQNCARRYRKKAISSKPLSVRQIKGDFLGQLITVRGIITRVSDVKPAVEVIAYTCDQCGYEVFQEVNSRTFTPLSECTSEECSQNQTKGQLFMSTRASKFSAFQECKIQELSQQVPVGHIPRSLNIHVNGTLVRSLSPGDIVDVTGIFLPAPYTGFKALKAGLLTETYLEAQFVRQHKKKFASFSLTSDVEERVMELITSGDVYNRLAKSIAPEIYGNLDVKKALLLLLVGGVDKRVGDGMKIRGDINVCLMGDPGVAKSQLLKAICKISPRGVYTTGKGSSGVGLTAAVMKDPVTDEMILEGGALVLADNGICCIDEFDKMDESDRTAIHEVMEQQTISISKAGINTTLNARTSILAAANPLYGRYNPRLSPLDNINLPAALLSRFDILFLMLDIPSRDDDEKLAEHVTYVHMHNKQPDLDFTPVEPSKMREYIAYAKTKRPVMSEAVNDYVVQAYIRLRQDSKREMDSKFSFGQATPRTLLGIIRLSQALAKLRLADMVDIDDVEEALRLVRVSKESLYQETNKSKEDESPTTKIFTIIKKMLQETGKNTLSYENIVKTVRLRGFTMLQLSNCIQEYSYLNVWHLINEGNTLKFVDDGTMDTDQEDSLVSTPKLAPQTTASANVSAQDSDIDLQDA
T3 sequence (P53091 whole entry): as the sequence (P53091 whole entry, chain 5 of 4) above

Binder: B1
- binding result [1]: binds
- binding result [2]: binds
- binding result [3]: binds

Binder: B2
- stoichiometry N [4]: 2 DDK per DH and 1 DDK per DH

Binder: B3
- binding result [5]: binds
